The MegaScale stability set (Tsuboyama et al. 2023)

B1: HEEH_KT_rd6_3546 (parent)
chain: SEEDKEREHWERLNRDFELRVLDTTFIAHHAEEVIKLLRWLEK

Variants of: B1
Assay: folding stability dG (cDNA display proteolysis); higher = more stable
Conditions: PBS, room temperature

Variant	folding stability dG [kcal/mol]
SEEDKEREHWERLNRDFELRQLDTTFIAHHAEEVIKLLRWLEK [V21Q]	1.3
SEEDKEREHWERLNRDFELRILDTTFIAHHAEEVIKLLRWLEK [V21I]	1.84
SEEDKEREHWERLNRDFELRLLDTTFIAHHAEEVIKLLRWLEK [V21L]	1.85
SEEDKEREHWERLNRDFELRWLDTTFIAHHAEEVIKLLRWLEK [V21W]	1.95
SEEDKEREHWERLNRDFELRMLDTTFIAHHAEEVIKLLRWLEK [V21M]	1.41
SEEDKEREHWERLNRDFELRALDTTFIAHHAEEVIKLLRWLEK [V21A]	1.33
SEEDKEREHWERLNRDFELRNLDTTFIAHHAEEVIKLLRWLEK [V21N]	1.23
SEEDKEREHWERLNRDFELRELDTTFIAHHAEEVIKLLRWLEK [V21E]	1.06
SEEDKEREHWERLNRDFELRHLDTTFIAHHAEEVIKLLRWLEK [V21H]	1.22
SEEDKEREHWERLNRDFELRYLDTTFIAHHAEEVIKLLRWLEK [V21Y]	1.5
SEEDKEREHWERLNRDFELRDLDTTFIAHHAEEVIKLLRWLEK [V21D]	1.09
SEEDKEREHWERLNRDFELRTLDTTFIAHHAEEVIKLLRWLEK [V21T]	1.27
SEEDKEREHWERLNRDFELRSLDTTFIAHHAEEVIKLLRWLEK [V21S]	1.16
SEEDKEREHWERLNRDFELRPLDTTFIAHHAEEVIKLLRWLEK [V21P]	0.85
SEEDKEREHWERLNRDFELRGLDTTFIAHHAEEVIKLLRWLEK [V21G]	1.49
SEEDKEREHWERLNRDFELRFLDTTFIAHHAEEVIKLLRWLEK [V21F]	1.72
SEEDKEREHWERLNRDFELRKLDTTFIAHHAEEVIKLLRWLEK [V21K]	1.03
SEEDKEREHWERLNRDFELRRLDTTFIAHHAEEVIKLLRWLEK [V21R]	1.41
SEEDKEREHWERLNRDFELRVLDTRFIAHHAEEVIKLLRWLEK [T25R]	1.41
SEEDKEREHWERLNRDFELRVLDTKFIAHHAEEVIKLLRWLEK [T25K]	1.16
SEEDKEREHWERLNRDFELRVLDTSFIAHHAEEVIKLLRWLEK [T25S]	1.52
SEEDKEREHWERLNRDFELRVLDTYFIAHHAEEVIKLLRWLEK [T25Y]	1.65
SEEDKEREHWERLNRDFELRVLDTDFIAHHAEEVIKLLRWLEK [T25D]	1.2
SEEDKEREHWERLNRDFELRVLDTPFIAHHAEEVIKLLRWLEK [T25P]	0.992

Variant	folding stability dG [kcal/mol]
SEEDKEREHWERLNRDFELRVLDTVFIAHHAEEVIKLLRWLEK [T25V]	1.61
SEEDKEREHWERLNRDFELRVLDTIFIAHHAEEVIKLLRWLEK [T25I]	1.7
SEEDKEREHWERLNRDFELRVLDTNFIAHHAEEVIKLLRWLEK [T25N]	1.26
SEEDKEREHWERLNRDFELRVLDTEFIAHHAEEVIKLLRWLEK [T25E]	1.31
SEEDKEREHWERLNRDFELRVLDTHFIAHHAEEVIKLLRWLEK [T25H]	1.29
SEEDKEREHWERLNRDFELRVLDTMFIAHHAEEVIKLLRWLEK [T25M]	1.36
SEEDKEREHWERLNRDFELRVLDTFFIAHHAEEVIKLLRWLEK [T25F]	2.35
SEEDKEREHWERLNRDFELRVLDTAFIAHHAEEVIKLLRWLEK [T25A]	1.46
SEEDKEREHWERLNRDFELRVLDTLFIAHHAEEVIKLLRWLEK [T25L]	2.18
SEEDKEREHWERLNRDFELRVLDTQFIAHHAEEVIKLLRWLEK [T25Q]	0.911
SEEDKEREHWERLNRDFELRVLDTCFIAHHAEEVIKLLRWLEK [T25C]	1.75
SEEDKEREHWERLNRDFELRVLDTGFIAHHAEEVIKLLRWLEK [T25G]	0.905
SEEDKEREHWERLNRDFELRVLDTWFIAHHAEEVIKLLRWLEK [T25W]	2.16
SEEDKEREHWERLNRDFELGVLDTTFIAHHAEEVIKLLRWLEK [R20G]	1.29
SEEDKEREHWERLNRDFELWVLDTTFIAHHAEEVIKLLRWLEK [R20W]	2.38
SEEDKEREHWERLNRDFELPVLDTTFIAHHAEEVIKLLRWLEK [R20P]	0.684
SEEDKEREHWERLNRDFELLVLDTTFIAHHAEEVIKLLRWLEK [R20L]	1.93
SEEDKEREHWERLNRDFELYVLDTTFIAHHAEEVIKLLRWLEK [R20Y]	2.39
SEEDKEREHWERLNRDFELIVLDTTFIAHHAEEVIKLLRWLEK [R20I]	1.99
SEEDKEREHWERLNRDFELMVLDTTFIAHHAEEVIKLLRWLEK [R20M]	1.63
SEEDKEREHWERLNRDFELNVLDTTFIAHHAEEVIKLLRWLEK [R20N]	1.23
SEEDKEREHWERLNRDFELFVLDTTFIAHHAEEVIKLLRWLEK [R20F]	2.21
SEEDKEREHWERLNRDFELQVLDTTFIAHHAEEVIKLLRWLEK [R20Q]	1.05
SEEDKEREHWERLNRDFELSVLDTTFIAHHAEEVIKLLRWLEK [R20S]	1.35

Variant	folding stability dG [kcal/mol]
SEEDKEREHWERLNRDFELVVLDTTFIAHHAEEVIKLLRWLEK [R20V]	1.68
SEEDKEREHWERLNRDFELHVLDTTFIAHHAEEVIKLLRWLEK [R20H]	1.39
SEEDKEREHWERLNRDFELKVLDTTFIAHHAEEVIKLLRWLEK [R20K]	1.36
SEEDKEREHWERLNRDFELEVLDTTFIAHHAEEVIKLLRWLEK [R20E]	0.819
SEEDKEREHWERLNRDFELTVLDTTFIAHHAEEVIKLLRWLEK [R20T]	1.4
SEEDKEREHWERLNRDFELRVPDTTFIAHHAEEVIKLLRWLEK [L22P]	0.989
SEEDKEREHWERLNRDFELRVNDTTFIAHHAEEVIKLLRWLEK [L22N]	1.06
SEEDKEREHWERLNRDFELRVGDTTFIAHHAEEVIKLLRWLEK [L22G]	1.48
SEEDKEREHWERLNRDFELRVVDTTFIAHHAEEVIKLLRWLEK [L22V]	1.18
SEEDKEREHWERLNRDFELRVFDTTFIAHHAEEVIKLLRWLEK [L22F]	1.42
SEEDKEREHWERLNRDFELRVIDTTFIAHHAEEVIKLLRWLEK [L22I]	1.53
SEEDKEREHWERLNRDFELRVEDTTFIAHHAEEVIKLLRWLEK [L22E]	0.622
SEEDKEREHWERLNRDFELRVYDTTFIAHHAEEVIKLLRWLEK [L22Y]	1.67
SEEDKEREHWERLNRDFELRVDDTTFIAHHAEEVIKLLRWLEK [L22D]	0.869
SEEDKEREHWERLNRDFELRVTDTTFIAHHAEEVIKLLRWLEK [L22T]	0.948
SEEDKEREHWERLNRDFELRVQDTTFIAHHAEEVIKLLRWLEK [L22Q]	0.891
SEEDKEREHWERLNRDFELRVSDTTFIAHHAEEVIKLLRWLEK [L22S]	0.925
SEEDKEREHWERLNRDFELRVADTTFIAHHAEEVIKLLRWLEK [L22A]	1.06
SEEDKEREHWERLNRDFELRVRDTTFIAHHAEEVIKLLRWLEK [L22R]	1.07
SEEDKEREHWERLNRDFELRVKDTTFIAHHAEEVIKLLRWLEK [L22K]	0.899
SEEDKEREHWERLNRDFELRVWDTTFIAHHAEEVIKLLRWLEK [L22W]	1.35
SEEDKEREHWERLNRDFELRVMDTTFIAHHAEEVIKLLRWLEK [L22M]	1.3
SEEDKEREHWERLNRDFELRVHDTTFIAHHAEEVIKLLRWLEK [L22H]	0.824
SEEDKEREHWERLNRDFELRVLDETFIAHHAEEVIKLLRWLEK [T24E]	0.926

Variant	folding stability dG [kcal/mol]
SEEDKEREHWERLNRDFELRVLDYTFIAHHAEEVIKLLRWLEK [T24Y]	1.79
SEEDKEREHWERLNRDFELRVLDRTFIAHHAEEVIKLLRWLEK [T24R]	1.25
SEEDKEREHWERLNRDFELRVLDPTFIAHHAEEVIKLLRWLEK [T24P]	1.22
SEEDKEREHWERLNRDFELRVLDNTFIAHHAEEVIKLLRWLEK [T24N]	1.28
SEEDKEREHWERLNRDFELRVLDLTFIAHHAEEVIKLLRWLEK [T24L]	2.19
SEEDKEREHWERLNRDFELRVLDQTFIAHHAEEVIKLLRWLEK [T24Q]	1.02
SEEDKEREHWERLNRDFELRVLDVTFIAHHAEEVIKLLRWLEK [T24V]	2.13
SEEDKEREHWERLNRDFELRVLDMTFIAHHAEEVIKLLRWLEK [T24M]	1.82
SEEDKEREHWERLNRDFELRVLDKTFIAHHAEEVIKLLRWLEK [T24K]	1.07
SEEDKEREHWERLNRDFELRVLDSTFIAHHAEEVIKLLRWLEK [T24S]	1.06
SEEDKEREHWERLNRDFELRVLDDTFIAHHAEEVIKLLRWLEK [T24D]	0.925
SEEDKEREHWERLNRDFELRVLDHTFIAHHAEEVIKLLRWLEK [T24H]	1.13
SEEDKEREHWERLNRDFELRVLDITFIAHHAEEVIKLLRWLEK [T24I]	2.24
SEEDKEREHWERLNRDFELRVLDFTFIAHHAEEVIKLLRWLEK [T24F]	2.01
SEEDKEREHWERLNRDFELRVLDGTFIAHHAEEVIKLLRWLEK [T24G]	0.995
SEEDKEREHWERLNRDFELRVLDATFIAHHAEEVIKLLRWLEK [T24A]	1.41
SEEDKEREHWERLNRDFELRVLDWTFIAHHAEEVIKLLRWLEK [T24W]	2.13
SEEDKEREHWERLNRDFELRVLDTTMIAHHAEEVIKLLRWLEK [F26M]	0.674
SEEDKEREHWERLNRDFELRVLDTTNIAHHAEEVIKLLRWLEK [F26N]	0.663
SEEDKEREHWERLNRDFELRVLDTTIIAHHAEEVIKLLRWLEK [F26I]	0.875
SEEDKEREHWERLNRDFELRVLDTTDIAHHAEEVIKLLRWLEK [F26D]	0.665
SEEDKEREHWERLNRDFELRVLDTTGIAHHAEEVIKLLRWLEK [F26G]	0.568
SEEDKEREHWERLNRDFELRVLDTTKIAHHAEEVIKLLRWLEK [F26K]	0.504
SEEDKEREHWERLNRDFELRVLDTTHIAHHAEEVIKLLRWLEK [F26H]	0.83

Variant	folding stability dG [kcal/mol]
SEEDKEREHWERLNRDFELRVLDTTLIAHHAEEVIKLLRWLEK [F26L]	0.925
SEEDKEREHWERLNRDFELRVLDTTPIAHHAEEVIKLLRWLEK [F26P]	0.393
SEEDKEREHWERLNRDFELRVLDTTEIAHHAEEVIKLLRWLEK [F26E]	0.588
SEEDKEREHWERLNRDFELRVLDTTAIAHHAEEVIKLLRWLEK [F26A]	0.696
SEEDKEREHWERLNRDFELRVLFTTFIAHHAEEVIKLLRWLEK [D23F]	3.18
SEEDKEREHWERLNRDFELRVLRTTFIAHHAEEVIKLLRWLEK [D23R]	1.87
SEEDKEREHWERLNRDFELRVLWTTFIAHHAEEVIKLLRWLEK [D23W]	2.85
SEEDKEREHWERLNRDFELRVLETTFIAHHAEEVIKLLRWLEK [D23E]	1.29
SEEDKEREHWERLNRDFELRVLATTFIAHHAEEVIKLLRWLEK [D23A]	2.35
SEEDKEREHWERLNRDFELRVLVTTFIAHHAEEVIKLLRWLEK [D23V]	3
SEEDKEREHWERLNRDFELRVLLTTFIAHHAEEVIKLLRWLEK [D23L]	2.86
SEEDKEREHWERLNRDFELRVLNTTFIAHHAEEVIKLLRWLEK [D23N]	1.45
SEEDKEREHWERLNRDFELRVLHTTFIAHHAEEVIKLLRWLEK [D23H]	2.01
SEEDKEREHWERLNRDFELRVLITTFIAHHAEEVIKLLRWLEK [D23I]	3.03
SEEDKEREHWERLNRDFELRVLKTTFIAHHAEEVIKLLRWLEK [D23K]	1.6
SEEDKEREHWERLNRDFELRVLSTTFIAHHAEEVIKLLRWLEK [D23S]	1.94
SEEDKEREHWERLNRDFELRVLGTTFIAHHAEEVIKLLRWLEK [D23G]	1.64
SEEDKEREHWERLNRDFELRVLPTTFIAHHAEEVIKLLRWLEK [D23P]	1.35
SEEDKEREHWERLNRDFELRVLMTTFIAHHAEEVIKLLRWLEK [D23M]	2.76
SEEDKEREHWERLNRDFELRVLTTTFIAHHAEEVIKLLRWLEK [D23T]	2.27
SEEDKEREHWERLNRDFELRVLYTTFIAHHAEEVIKLLRWLEK [D23Y]	2.92
SEEDKEREHWERLNRDFELRVLQTTFIAHHAEEVIKLLRWLEK [D23Q]	1.64
